Here are results for 7 molecules from PMC7943601, “Substrate-engaged type III secretion system structures reveal gating mechanism for unfolded protein translocation” (Nature Communications, 2021).

B1: SpaP (natural protein)
chain: MGNDISLIALLAFSTLLPFIIASGTCFVKFSIVFVMVRNALGLQQIPSNMTLNGVALLLSMFVMWPIMHDAYVYFEDEDVTFNDISSLSKHVDEGLDGYRDYLIKYSDRELVQFFENAQLKRQYGEETETVKRDKDEIEKPSIFALLPAYALSEIKSAFKIGFYLYLPFVVVDLVVSSVLLALGMMMMSPVTISTPIKLVLFVALDGWTLLSKGLILQYMDIAT
notes: SpaP, export apparatus protein of the S. enterica sv; Typhimurium injectisome; Five copies in the export apparatus (SpaP : Q : R 5 : 4 : 1); also called SpaP1-5; SpaP pentamer
B4: InvG (natural protein)
chain: SEKIPVTGSGFVAKDDSLRTFFDAMALQLKEPVIVSKMAARKKITGNFEFHDPNALLEKLSLQLGLIWYFDGQAIYIYDASEMRNAVVSLRNVSLNEFNNFLKRSGLYNKNYPLRGDNRKGTFYVSGPPVYVDMVVNAATMMDKQNDGIELGRQKIGVMRLNNTFVGDRTYNLRDQKMVIPGIATAIERLLQGEEQPLGNIVSSEPPAMPAFSANGEKGKAANYAGGMSLQEALKQNAAAGNIKIVAYPDTNSLLVKGTAEQVHFIEMLVKALDVAKRHVELSLWIVDLNKSDLERLGTSWSGSITIGDKLGVSLNQSSISTLDGSRFIAAVNALEEKKQATVVSRPVLLTQENVPAIFDNNRTFYTKLIGERNVALEHVTYGTMIRVLPRFSADGQIEMSLDIEDGNDKTPQSDTTTSVDALPEVGRTLISTIARVPHGKSLLVGGYTRDANTDTVQSIPFLGKLPLIGSLFRYSSKNKSNVVRVFMIEPKEIVDPLTPDASESVNNILKQSGAWSGDDKLQKWVRVYLDRGQEAIK
notes: InvG, basal body ring protein (outer rings) of the S. enterica sv; Typhimurium injectisome; modelled as G34-I173 (lower OR) and E174-G557 (upper OR); Printed as InvG_(1-15/16); the upper outer ring was built in a C15-symmetrized map; also called InvG_(1-15/16); outer rings
B5: SpaR (natural protein)
chain: MFYALYFEIHHLVASAALGFARVAPIFFFLPFLNSGVLSGAPRNAIIILVALGVWPHALNEAPPFLSVAMIPLVLQEAAVGVMLGCLLSWPFWVMHALGCIIDNQRGATLSSSIDPANGIDTSEMANFLNMFAAVVYLQNGGLVTMVDVLNKSYQLCDPMNECTPSLPPLLTFINQVAQNALVLASPVVLVLLLSEVFLGLLSRFAPQMNAFAISLTVKSGIAVLIMLLYFSPVLPDNVLRLSFQATGLSSWFYERGATHVLE
notes: SpaR, export apparatus protein of the S. enterica sv; Typhimurium injectisome; One copy in the export apparatus

Test in all cases: cryo-EM structure
Data set [1] deals with B5. To be noted: both partners purified.
Data set [2] concerns the molecule itself.
Data set [3] deals with T1, PrgJ (S. enterica sv. Typhimurium (endogenous …, UniProt P41785 1-101)).
T1 construct: PrgJ, inner rod protein of the S. enterica sv; Typhimurium injectisome; Six protomers form the inner rod; also called PrgJ1-6; inner rod protein
The note with it: both partners purified.

In data set [4] the target is B1. The note with it: both partners purified.
Data set [5] deals with B4. The note with it: both partners purified.

Broadly, the stoichiometry N is a count of units in the complex or per binding partner.

T1 sequence (P41785 whole entry): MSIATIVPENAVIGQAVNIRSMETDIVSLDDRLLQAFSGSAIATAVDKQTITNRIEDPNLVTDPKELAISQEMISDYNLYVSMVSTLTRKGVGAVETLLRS

In the case of B1, the binding result in data set [1] and in data set [3] was “binds” throughout. Besides, in data set [2], the “stoichiometry N” value was determined as 5.

B2: PrgH (natural protein)
chain: METSKEKTITSPGPYIVRLLNSSLNGCEFPLLTGRTLFVVGQSDALTASGQLPDIPADSFFIPLDHGGVNFEIQVDTDATEIILHELKEGNSESRSVQLNTPIQVGELLILIRPESEPWVPEQPEKLETSAKKNEPRFKNGIVAALAGFFILGIGTVGTLWILNSPQRQAAELDSLLGQEKERFQVLPGRDKMLYVAAQNERDTLWARQVLARGDYDKNARVINENEENKRISIWLDTYYPQLAYYRIHFDEPRKPVFWLSRQRNTMSKKELEVLSQKLRALMPYADSVNITLMDDVTAAGQAEAGLKQQALPYSRRNHKGGVTFVIQGALDDVEILRARQFVDSYYRTWGGRYVQFAIELKDDWLKGRSFQYGAEGYIKMSPGHWYFPSPL
notes: PrgH, basal body ring protein of the S. enterica sv; Typhimurium injectisome; also called PrgH_(1-24); copies: 24
As to B2, the “stoichiometry N” value in data set [2] is 24.

B3: PrgI (natural protein)
chain: MATPWSGYLDDVSAKFDTGVDNLQTQVTEALDKLAAKPSDPALLAAYQSKLSEYNLYRNAQSNTVKVFKDIDAAIIQNFR
notes: PrgI, needle filament protein of the S. enterica sv; Typhimurium injectisome; Helical filament; 72 subunits were modelled in the substrate-trapped map; also called PrgI_(1-72); needle filament protein
Turning to B3, the binding result in data set [2], in data set [3], in data set [4] and in data set [5] was “binds” throughout.

For B4, the binding result in data set [3] is “binds”.

With B5, the binding result in data set [3] was “binds”.

B6: SpaQ (natural protein)
chain: MDDLVFAGNKALYLVLILSGWPTIVATIIGLLVGLFQTVTQLQEQTLPFGIKLLGVCLCLFLLSGWYGEVLLSYGRQVIFLALAKG
notes: also called SpaQ1-4
For B6, the binding result in data set [1] and in data set [4] was “binds” throughout. For the same molecule, the “stoichiometry N” value in data set [2] amounted to 4.

B7: PrgK (natural protein)
chain: CKDKDLLKGLDQEQANEVIAVLQMHNIEANKIDSGKLGYSITVAEPDFTAAVYWIKTYQLPPRPRVEIAQMFPADSLVSSPRAEKARLYSAIEQRLEQSLQTMEGVLSARVHISYDIDAGENGRPPKPVHLSALAVYERGSPLAHQISDIKRFLKNSFADVDYDNISVVLSERSDAQLQAPGTPVKRNSFATSWIVLIILLSVMSAGFGVWYYKNHYARNKKGITADDKAKSSNE
notes: PrgK, basal body ring protein of the S. enterica sv; Typhimurium injectisome; also called PrgK_(1-24); copies: 24
As to B7, the “stoichiometry N” value in data set [2] came to 24.
